Assay [1] deals with Gerbich human erythrocytes (exon 3 deletion of glycophorin C/D: shortened glycophorin C, absent glycophorin D). Kind of assay: region II on COS cells, erythrocyte-binding assay.
The target in assay [2] is normal human erythrocytes (untreated). Kind of assay: region II on COS cells, erythrocyte-binding assay.
The test system of the next assay is human erythrocytes. Kind of assay: Modified erythrocyte binding assay: absorption/elution of metabolically labeled parasite proteins followed by immunoprecipitation. The following applies: for Binding to En(a-) erythrocytes: which lack glycophorin A; for Binding to S-s-U- erythrocytes: S-s-U- erythrocytes that lacked glycophorin B; for Elution from Gerbich and normal erythrocytes: fresh Gerbich erythrocytes vs normal erythrocytes; for Absorption from culture supernatant by Gerbich cells compared with normal erythrocytes: fresh blood from a person with the Gerbich mutation, two separate experiments; for Binding to neuraminidase-treated human erythrocytes / Binding to trypsin-treated human erythrocytes: Dd2/Nm culture supernatant; for Binding to Gerbich erythrocytes: pellet-frozen Gerbich (-2, -3, -4) erythrocytes; for Binding to Yus erythrocytes: pellet-frozen Yus (-2, -3, -4) erythrocytes. The text has this:
We have developed a new assay for measuring binding of BAEBL to erythrocytes. Previously, EBA-175 was identified in parasite proteins bound and eluted from human erythrocytes. Its identification was based on the fact that it was the most abundant and the highest molecular weight protein eluted from these erythrocytes. Lower molecular weight proteins may be proteolytic fragments of EBA-175 or products of different genes. To positively identify BAEBL, we immunoprecipitated BAEBL from proteins eluted from erythrocytes with anti-region II and anti-region VI.
We also modified the protocol in that we identified proteins removed from the supernatant by erythrocyte absorption. We determined the different quantities of erythrocytes required to remove BAEBL from the parasite supernatant. […] The protein was largely removed by absorbing twice with 50 μl of packed erythrocytes for some culture supernatants and by only one absorbtion with 50 μl for other supernatants. Therefore, on some samples, we absorbed with 25 μl, 50 μl once, and 50 μl twice for comparison between normal erythrocytes and mutant erythrocytes or enzyme-treated erythrocytes. The protein was also eluted from the first 50 μl of packed erythrocytes used for absorption.
Blood was collected in 10% citrate-phosphate-dextrose (vol/vol) and stored for up to 4 weeks at 4° C. At the time of study, the erythrocytes were washed three times in incomplete media (RPMI-1640; Life Technologies, Rockville, Md.) with 25 mM HEPES and 0.36 mM hypoxanthine (Sigma, St. Louis, Mo.). For neuraminidase treatment, 5.5 ml of a 5% (vol/vol) suspension of the washed human erythrocytes in incomplete media were incubated twice with 3 milliunits of neuraminidase (Vibrio cholerae; CalBiochem, La Jolla, Calif.) for 2 hr at 37° C. each time. For trypsin treatment, washed human erythrocytes were incubated with 1 mg/ml of tosyl-phenylalanine-chloromethyl-ketone-treated trypsin (Sigma) for 2 hr at 37° C. After trypsin treatment, the cells were washed once in incomplete medium and incubated with 2 mg/ml soybean trypsin inhibitor (Sigma) for 10 min at room temperature. The cells were washed twice before use in a study.
The glycophorin A and glycophorin B null erythrocytes [En(a-) and S-s-U-, respectively and the glycophorin D null/glycophorin C modified erythrocytes (Gerbich cells) were frozen within a few days of receipt and thawed by the Red Cross method (Mallory, D. ed. 1993 Immunohematology Methods and Procedures American Red Cross, National Reference Laboratory, Rockville, Md., pp. 125-1-125-2). Blood from a Gerbich donor was collected in 10% (vol/vol) anticoagulant citrate-phosphate-dextrose.
Other glycophorin C/D mutant cells (Leach, Gerbich, and Yus cells) had been stored in liquid nitrogen as frozen pellets (Judd, W. J. 1994 in: Methods in Immunohematology Montgomery Scientific Publications Durham, N.C., pp. 188-190) and thawed directly into PBS at 37° C.
Soluble, metabolically labeled parasite proteins were obtained from culture supernatant of schizont-infected erythrocytes that released merozoites in the absence of uninfected erythrocytes. The parasites were left to lyse and release proteins into the culture supernatant. The Dd2/Nm clone of P. falciparum was cultured as previously described (Kaneko, O. et al. 2000 Mol Biochem Parasitol 110: […]) with the following exceptions. Schizont-infected erythrocytes (5×10^7 per ml of culture medium) were used during the metabolic labeling. The culture supernatant was ultracentrifuged in a Beckman Optima TLX Ultracentrifuge (Beckman, Fullerton, Calif.) at 40,000 rpm (98,600×g) for 10 min at 4° C. before storage at −70° C.
Proteins in the supernatant and in the diluted eluate were immunoprecipitated as previously described (Kaneko, O. et al. 2000 Mol Biochem Parasitol 110: 135-146) with the following exceptions. […]

[3] abbreviates: glycophorin C/D null erythrocytes of the Leach phenotype, preliminary experiments.

Results on three molecules are retold here after patent US20050239730A1, “Plasmodium falciparum erythrocyte binding protein baebl for use as a vaccine” (priority 2001, published 2005).

“BAEBL region II variant VSTK, expressed on the surface of COS cells (ligand)”: the percentage of binding to normal, untreated RBC in assay [1] came out at 0.9%. The COS cells with five or more attached RBC, total per coverslip (COS cells per coverslip) in assay [2] came to 65.

B1: BAEBL: Plasmodium falciparum erythrocyte binding protein of the DBL-EBP family (SEQ ID NO: 2); here metabolically labeled protein from Dd2/Nm culture supernatant (protein, listed as Plasmodium falciparum)
chain: MKGYFNIYFLIPLIFLYNVIRINESIIGRTLYNRQDESSDISRVNSPELNNNHKTNIYDSDYEDVNNKLINSFVENKSVKKKRSLSFINNKTKSYDIIPPSYSYRNDKFNSLSENEDNSGNTNSNNFANTSEISIGKDNKQYTFIQKRTHLFACGIKRKSIKWICRENSEKITVCVPDRKIQLCVANFLNSRLETMEKFKEIFLISVNTEAKLLYNKNEGKDPSIFCNELRNSFSDFRSSFIGDDMDFGGNTDRVKGYINTKFSDYYKEKNVEKLNNIKKEWWEKNKANLWNHMIVNHKGNISKECAIIPAEEPQINLWIKEWNENFLMEKKRLFLNIKDKCVENKKYEACFGGCRLPCSSYTSFMKKSKTQMEVLTNLYKKKNSGVDKNNFLNDLFKKNNKNDLDDFFKNEKEYDDLCDCRYTATIIKSFLNGPAKNDVDIASQINVNDLRGFGCNYKSNNEKSWNCTGTFTNKFPGTCEPPRRQTLCLGRTYLLHRGHEEDYKEHLLGASIYEAQLLKYKYKEKDENALCSIIQNSYADLADIIKGSDIIKDYYGKKMEENLNKVNKDKKRNEESLKIFREKWWDENKENVWKVMSAVLKNKETCKDYDKFQKIPQFLRWFKEWGDDFCEKRKEKIYSFESFKVECKKKDCDENTCKNKCSEYKKWIDLKKSEYEKQVDKYTKDKNKKMYDNIDEVKNKEANVYLKEKSKECKDVNFDDKIFNESPNEYEDMCKKCDEIKYLNEIKYPKTKHDIYDIDTFSDTFGDGTPISINANINEQQSGKDTSNTGNSETSDSPVSHEPESDAAINVEKLSGDESSSETRGILDINDPSVTNNVNEVHDASNTQGSVSNTSDITNGHSESSLNRTTNAQDIKIGRSGNEQSDNQENSSHSSDNSGSLTIGQVPSEDNTQNTYDSQNPHRDTPNALASLPSDDKINEIEGFDSSRDSENGRGDTTSNTHDVRRTNIVSERRVNSHDFIRNGMANNNAHHQYITQIENNGIIRGQEESAGNSVNYKDNPKRSNFSSENDHKKNIQEYNSRDTKRVREEIIKLSKQNKCNNEYSMEYCTYSDERNSSPGPCSREERKKLCCQISDYCLKYFNFYSIEYYNCIKSEIKSPEYKCFKSEGQSSIPYFAAGGILVVIVLLLSSASRMGKSNEEYDIGESNIEATFEENNYLNKLSRIFNQEVQETNISDYSEYNYNEKNMY
modifications: metabolic label
notes: here metabolically labeled protein from Dd2/Nm culture supernatant
Regarding B1, in the assay on human erythrocytes, the “Binding to En(a-) erythrocytes” value is “bound to these erythrocytes in a similar manner as to normal erythrocytes”; the “Binding to S-s-U- erythrocytes” value is reported as “bound”; the “Elution from Gerbich and normal erythrocytes” value is reported as “eluted from normal but not Gerbich erythrocytes”; the “Absorption from culture supernatant by Gerbich cells compared with normal erythrocytes” value is on record as “required twice as many Gerbich cells”. Besides, in the assay with human erythrocytes, the “Binding to neuraminidase-treated human erythrocytes” value is “eliminated the binding”, the “Binding to Gerbich erythrocytes” value is recorded as “reduced binding”, the “Binding to Yus erythrocytes” value is listed as “reduced binding” and the “Binding to trypsin-treated human erythrocytes” value is “eliminated the binding”. In addition, in the assay with human erythrocytes (setting [3]), the “Detection in eluate of Leach erythrocytes” value is listed as “never detected” and the “Detection in parasite supernatant absorbed with Leach erythrocytes” value is listed as “not detected”. In addition, the “Elution from neuraminidase-treated normal erythrocytes” value with human erythrocytes (neuraminidase-treated normal erythrocytes) is on record as “did not elute”.

B2: EBA-175: P. falciparum receptor that binds sialic acid and the peptide backbone of glycophorin A on erythrocytes (protein)
chain: ARNEYDIKENEKFLDVYKEKFNELDKKKYGNVQKTDKKIFTFIENKLDILNNSKFNKRWKSYGTPDNIDKNMSLINKHNNEEMFNNNYQSFLSTSSLIKQNKYVPINAVRVSRILSFLDSRINNGRNTSSNNEVLSNCREKRKGMKWDCKKKNDRSNYVCIPDRRIQLCIVNLSIIKTYTKETMKDHFIEASKKESQLLLKKNDNKYNSKFCNDLKNSFLDYGHLAMGNDMDFGGYSTKAENKIQEVFKGAHGEISEHKIKNFRKEWWNEFREKLWEAMLSEHKNNINNCKNIPQEELQITQWIKEWHGEFLLERDNRSKLPKSKCKNNTLYEACEKECIDPCMKYRDWIIRSKFEWHTLSKEYETQKVPKENAENYLIKISENKNDAKVSLLLNNCDAEYSKYCDCKHTTTLVKSVLNGNDNTIKEKREHIDLDDFSKFGCDKNSVDTNTKVWECKNPYILSTKDVCVPPRRQELCLGNIDRIYDKNLLMIKEHILAIAIYESRILKRKYKNKDDKEVCKIINKTFADIRDIIGGTDYWNDLSNRKLVGKINTNSKYVHRNKKNDKLFRDEWWKVIKKDVWNVISWVFKDKTVCKEDDIENIPQFFRWFSEWGDDYCQDKTKMIETLKVECKEKPCEDDNCKSKCNSYKEWISKKKEEYNKQAKQYQEYQKGNNYKMYSEFKSIKPEVYLKKYSEKCSNLNFEDEFKEELHSDYKNKCTMCPEVKDVPISIIRNNEQTSQEAVPEENTEIAHRTETPSISEGPKGNEQKERDDDSLSKISVSPENSRPETDAKDTSNLLKLKGDVDISMPKAVIGSSPNDNINVTEQGDNISGVNSKPLSDDVRPDKKELEDQNSDESEETVVNHISKSPSINNGDDSGSGSATVSESSSSNTGLSIDDDRNGDTFVRTQDTANTEDVIRKENADKDEDEKGADEERHSTSESLSSPEEKMLTDNEGGNSLNHEEVKEHTSNSDNVQQSGGIVNMNVEKELKDTLENPSSSLDEGKAHEELSEPNLSSDQDMSNTPGPLDNTSEETTERISNNEYKVNEREDERTLTKEYEDIVLKSHMNRESDDGELYDENSDLSTVNDESEDAEAKMKGNDTSEMSHNSSQHIESDQQKNDMKTVGDLGTTHVQNEISVPVTGEIDEKLRESKESKIHKAEEERLSHTDIHKINPEDRNSNTLHLKDIRNEENERHLTNQNINISQERDLQKHGFHTMNNLHGDGVSERSQINHSHHGNRQDRGGNSGNVLNMRSNNNNFNNIPSRYNLYDKKLDLDLYENRNDSTTKELIKKLAEINKCENEISVKYCDHMIHEEIPLKTCTKEKTRNLCCAVSDYCMSYFTYDSEEYYNCTKREFDDPSYTCFRKEAFSSMIFKFLITNKIYYYFYTYKTAKVTIKKINFSLIFFFFFSF
Regarding B2, in the assay with human erythrocytes, the “Binding to En(a-) erythrocytes” value is reported as “failed to bind”; the “Binding to S-s-U- erythrocytes” value is “bound”; the “Elution from Gerbich and normal erythrocytes” value is “eluted from both Gerbich and normal erythrocytes”; the “Absorption from culture supernatant by Gerbich cells compared with normal erythrocytes” value was “bound equally well to Gerbich and normal erythrocytes”. In the assay on human erythrocytes, the “Binding to neuraminidase-treated human erythrocytes” value is “failure of neuraminidase-and trypsin-treated erythrocytes to bind”, the “Binding to Gerbich erythrocytes” value is given as “bound normally”, the “Binding to Yus erythrocytes” value was “bound normally” and the “Binding to trypsin-treated human erythrocytes” value is “failure of neuraminidase-and trypsin-treated erythrocytes to bind”.
